From paper PMC3905071

Legend:
[1] = biological target: YB-1 (WT) (UniProt P67809 1-324); test: EMSA and filter binding
[2] = biological target: YB-1 (1-219), truncated (UniProt P67809 1-219); test: EMSA and filter binding
Sequence of YB-1 (1-219), truncated (P67809 1-219): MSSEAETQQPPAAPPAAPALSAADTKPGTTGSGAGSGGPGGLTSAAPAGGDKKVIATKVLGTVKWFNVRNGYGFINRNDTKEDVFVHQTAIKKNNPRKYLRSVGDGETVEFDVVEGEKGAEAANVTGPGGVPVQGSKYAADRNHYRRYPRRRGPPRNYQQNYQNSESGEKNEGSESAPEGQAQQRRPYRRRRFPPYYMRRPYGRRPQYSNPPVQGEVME

Sequence of YB-1 (WT) (P67809 whole entry, the tested form may be a part): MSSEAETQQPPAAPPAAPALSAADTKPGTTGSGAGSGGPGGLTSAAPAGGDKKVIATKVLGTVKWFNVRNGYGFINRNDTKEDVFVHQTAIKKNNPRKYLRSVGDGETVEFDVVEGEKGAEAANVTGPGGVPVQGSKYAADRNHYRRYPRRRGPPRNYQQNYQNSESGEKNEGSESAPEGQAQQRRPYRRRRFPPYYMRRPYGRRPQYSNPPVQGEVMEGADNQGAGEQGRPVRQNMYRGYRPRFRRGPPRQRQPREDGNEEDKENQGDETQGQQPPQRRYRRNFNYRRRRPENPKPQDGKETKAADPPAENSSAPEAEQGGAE

B1: 18-nt Y-box ssDNA (ssDNA)
DNA: AAACTGATTGGCCAAAAA
[1]
  binding result: binds
[2]
  binding result: binds
